This is an account of results in article PMC13389011.

Several values for one entry are separate records, joined by “and”; a condition that tells them apart may be missing. Equal values may be shown once.

Data set [1] deals with Dog insulin receptor ectodomain (DIR) (dog) (UniProt A0A8I3PWD4). In words: MST. The following applies: phenyl-dU (rigid) and indole-dA (flexible) after nt 20; IB: PBS (1.5 mM KH2PO4, 8.1 mM Na2HPO4, 2.7 mM KCl, 137 mM NaCl) + 5 mM MgCl2, pH 7.4; MST +0.1% Pluronic F-127, 25 C; SPR 25 C; FNBA and BLI r.t.
Chain of Dog insulin receptor ectodomain (DIR) (dog) (UniProt A0A8I3PWD4) (A0A8I3PWD4 entry or part of it): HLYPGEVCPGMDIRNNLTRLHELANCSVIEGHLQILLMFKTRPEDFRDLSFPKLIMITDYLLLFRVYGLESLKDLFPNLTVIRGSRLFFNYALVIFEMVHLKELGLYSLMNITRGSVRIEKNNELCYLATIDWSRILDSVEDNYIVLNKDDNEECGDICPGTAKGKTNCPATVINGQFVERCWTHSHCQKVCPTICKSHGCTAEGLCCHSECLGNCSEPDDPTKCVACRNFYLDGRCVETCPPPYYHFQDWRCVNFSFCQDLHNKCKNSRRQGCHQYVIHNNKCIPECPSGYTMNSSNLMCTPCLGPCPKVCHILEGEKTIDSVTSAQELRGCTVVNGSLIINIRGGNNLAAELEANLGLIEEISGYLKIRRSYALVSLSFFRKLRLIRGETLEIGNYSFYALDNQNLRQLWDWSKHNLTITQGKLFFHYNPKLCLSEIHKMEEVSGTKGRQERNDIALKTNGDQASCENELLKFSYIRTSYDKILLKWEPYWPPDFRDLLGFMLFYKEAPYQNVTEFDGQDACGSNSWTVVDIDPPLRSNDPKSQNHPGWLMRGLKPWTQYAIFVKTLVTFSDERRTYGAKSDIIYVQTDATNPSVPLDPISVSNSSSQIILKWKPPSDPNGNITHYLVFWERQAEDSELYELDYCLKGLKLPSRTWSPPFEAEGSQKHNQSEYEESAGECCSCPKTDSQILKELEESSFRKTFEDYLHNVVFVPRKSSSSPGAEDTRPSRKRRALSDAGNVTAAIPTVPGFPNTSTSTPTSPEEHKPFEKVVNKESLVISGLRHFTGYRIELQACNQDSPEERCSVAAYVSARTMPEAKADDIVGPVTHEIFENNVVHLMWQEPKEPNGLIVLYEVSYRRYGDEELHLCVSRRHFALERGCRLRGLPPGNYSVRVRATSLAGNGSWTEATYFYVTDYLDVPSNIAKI
Data set [2] concerns Human insulin receptor ectodomain (HIR) (Homo sapiens), P06213-2+P06213-2. Nature of the data set: MST. Conditions: DNA backbone, PBS (1.5 mM KH2PO4, 8.1 mM Na2HPO4, 2.7 mM KCl, 137 mM NaCl) with 5 mM MgCl2, pH 7.4, MST with 0.1% Pluronic F-127 at 25 C, FNBA at room temperature, high values mean tight binding.
Chain of Human insulin receptor ectodomain (HIR) (Homo sapiens), P06213-2+P06213-2 (P06213 other isoform, or with tags, fused parts or gaps, chain 1 of 2): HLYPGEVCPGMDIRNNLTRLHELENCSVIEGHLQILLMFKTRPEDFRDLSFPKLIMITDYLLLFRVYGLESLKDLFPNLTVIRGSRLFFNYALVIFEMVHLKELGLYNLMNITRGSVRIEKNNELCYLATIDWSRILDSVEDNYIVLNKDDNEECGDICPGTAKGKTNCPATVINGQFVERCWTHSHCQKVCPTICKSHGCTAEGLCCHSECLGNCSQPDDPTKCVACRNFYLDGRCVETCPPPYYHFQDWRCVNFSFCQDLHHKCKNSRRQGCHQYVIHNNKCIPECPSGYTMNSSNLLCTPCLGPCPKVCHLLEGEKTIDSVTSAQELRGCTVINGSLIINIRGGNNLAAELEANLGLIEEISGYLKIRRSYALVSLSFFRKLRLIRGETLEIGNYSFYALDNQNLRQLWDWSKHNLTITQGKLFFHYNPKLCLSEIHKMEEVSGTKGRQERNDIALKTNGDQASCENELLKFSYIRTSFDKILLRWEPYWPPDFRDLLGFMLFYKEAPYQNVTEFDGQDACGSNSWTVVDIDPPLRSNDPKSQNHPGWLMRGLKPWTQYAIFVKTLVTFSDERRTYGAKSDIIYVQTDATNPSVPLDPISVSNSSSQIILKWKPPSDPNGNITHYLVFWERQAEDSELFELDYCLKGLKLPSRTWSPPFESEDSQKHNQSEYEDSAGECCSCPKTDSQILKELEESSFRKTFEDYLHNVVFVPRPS
Chain of Human insulin receptor ectodomain (HIR) (Homo sapiens), P06213-2+P06213-2 (P06213 763-956, chain 2 of 2): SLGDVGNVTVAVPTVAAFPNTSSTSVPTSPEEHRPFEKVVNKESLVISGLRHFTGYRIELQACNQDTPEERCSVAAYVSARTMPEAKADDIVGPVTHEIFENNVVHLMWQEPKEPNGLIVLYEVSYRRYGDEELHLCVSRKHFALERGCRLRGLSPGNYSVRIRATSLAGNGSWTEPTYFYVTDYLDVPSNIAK
Data set [3] has the same test system. Nature of the data set: ELONA. The following applies: DNA backbone, PBS (1.5 mM KH2PO4, 8.1 mM Na2HPO4, 2.7 mM KCl, 137 mM NaCl) with 5 mM MgCl2, pH 7.4, MST with 0.1% Pluronic F-127 at 25 C, FNBA at room temperature, high values mean tight binding.
Another data set has as its target Insulin (Homo sapiens) (UniProt P01308). Nature of the data set: radioligand binding. Conditions: cited from earlier work.
Data set [4] deals with Human insulin receptor ectodomain (HIR) (Homo sapiens), P06213-2. In words: SPR. The following applies: after primer nt 1-20 every U = rigidly linked phenyl-dU and every A = flexibly linked indole-dA (nucleotides 1,2); DNA backbone; IB: PBS (1.5 mM KH2PO4, 8.1 mM Na2HPO4, 2.7 mM KCl, 137 mM NaCl) + 5 mM MgCl2, pH 7.4; MST +0.1% Pluronic F-127, 25 C; SPR 25 C; FNBA and BLI r.t.
Chain of Human insulin receptor ectodomain (HIR) (Homo sapiens), P06213-2 (P06213 other isoform, or with tags, fused parts or gaps): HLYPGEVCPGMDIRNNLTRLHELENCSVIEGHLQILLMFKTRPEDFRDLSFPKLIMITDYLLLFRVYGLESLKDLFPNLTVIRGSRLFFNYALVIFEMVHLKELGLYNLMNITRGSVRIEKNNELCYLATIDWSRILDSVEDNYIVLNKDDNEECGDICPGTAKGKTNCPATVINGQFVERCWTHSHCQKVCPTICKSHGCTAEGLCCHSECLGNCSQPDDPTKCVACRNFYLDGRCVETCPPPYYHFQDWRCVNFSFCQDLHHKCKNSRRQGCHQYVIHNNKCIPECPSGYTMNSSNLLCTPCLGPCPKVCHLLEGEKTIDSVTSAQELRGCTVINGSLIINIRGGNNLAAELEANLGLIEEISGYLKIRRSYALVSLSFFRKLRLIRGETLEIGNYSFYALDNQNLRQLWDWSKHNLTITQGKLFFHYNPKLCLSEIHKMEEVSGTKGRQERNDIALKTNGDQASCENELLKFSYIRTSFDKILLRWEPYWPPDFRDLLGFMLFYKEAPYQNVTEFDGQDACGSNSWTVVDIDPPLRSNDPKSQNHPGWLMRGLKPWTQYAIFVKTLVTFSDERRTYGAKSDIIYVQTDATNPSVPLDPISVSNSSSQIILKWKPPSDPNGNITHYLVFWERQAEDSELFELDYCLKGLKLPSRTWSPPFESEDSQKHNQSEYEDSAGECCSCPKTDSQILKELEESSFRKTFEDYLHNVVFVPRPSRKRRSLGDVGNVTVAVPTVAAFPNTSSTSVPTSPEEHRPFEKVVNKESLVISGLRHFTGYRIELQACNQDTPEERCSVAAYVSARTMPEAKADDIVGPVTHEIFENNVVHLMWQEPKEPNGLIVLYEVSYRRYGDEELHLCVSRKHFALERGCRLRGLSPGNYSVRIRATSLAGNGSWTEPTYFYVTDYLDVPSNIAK

The target of data set [5] is T1, Cat insulin receptor ectodomain (CIR) (cat) (UniProt A0ABI7YJR5+A0ABI7YJR5). Nature of the data set: MST. The following applies: DNA backbone; 7-deaza-7-(indolyl-ethyl)-dA (dAAIn) at 27,28,32,33,35,39,48,51; 5-(phenyl-ethynyl)-dU (dUEPh) at 24,25,26,31,40,42,44,46,49,52,54; PBS (1.5 mM KH2PO4, 8.1 mM Na2HPO4, 2.7 mM KCl, 137 mM NaCl) with 5 mM MgCl2, pH 7.4; MST with 0.1% Pluronic F-127 at 25 C; FNBA at room temperature; high values mean tight binding.
T1 sequence (chain, as listed by the source, chain 1 of 2): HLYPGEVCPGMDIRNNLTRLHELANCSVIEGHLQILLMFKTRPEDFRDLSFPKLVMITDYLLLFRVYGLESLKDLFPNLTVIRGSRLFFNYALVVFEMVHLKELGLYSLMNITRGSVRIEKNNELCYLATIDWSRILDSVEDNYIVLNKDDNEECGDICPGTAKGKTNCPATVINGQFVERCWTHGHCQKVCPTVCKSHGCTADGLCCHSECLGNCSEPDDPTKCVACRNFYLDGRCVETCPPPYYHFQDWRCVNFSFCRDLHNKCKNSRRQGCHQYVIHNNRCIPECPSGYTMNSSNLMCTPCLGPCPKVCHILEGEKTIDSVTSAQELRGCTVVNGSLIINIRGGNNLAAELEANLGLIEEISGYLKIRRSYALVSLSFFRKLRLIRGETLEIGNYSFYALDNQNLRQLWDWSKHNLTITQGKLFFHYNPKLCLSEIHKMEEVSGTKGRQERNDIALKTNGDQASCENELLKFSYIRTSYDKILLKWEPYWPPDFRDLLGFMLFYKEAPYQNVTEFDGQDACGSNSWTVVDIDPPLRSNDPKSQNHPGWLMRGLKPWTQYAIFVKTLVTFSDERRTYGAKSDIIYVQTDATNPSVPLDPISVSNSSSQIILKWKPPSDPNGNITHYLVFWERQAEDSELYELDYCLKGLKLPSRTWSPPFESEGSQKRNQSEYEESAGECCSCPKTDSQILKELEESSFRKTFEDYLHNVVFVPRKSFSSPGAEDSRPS
T1 sequence (chain, as listed by the source, chain 2 of 2): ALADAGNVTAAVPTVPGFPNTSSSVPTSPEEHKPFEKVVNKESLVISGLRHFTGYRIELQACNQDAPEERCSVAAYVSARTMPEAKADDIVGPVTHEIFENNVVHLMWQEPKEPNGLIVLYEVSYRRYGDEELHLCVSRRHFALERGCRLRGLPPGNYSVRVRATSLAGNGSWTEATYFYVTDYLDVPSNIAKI

For data set [6], the target named is T2, Dog insulin receptor ectodomain (DIR) (dog) (UniProt A0A8I3PWD4+A0A8I3PWD4). Nature of the data set: MST. Conditions: DNA backbone; 7-deaza-7-(indolyl-ethyl)-dA (dAAIn) at 27,28,32,33,35,39,48,51; 5-(phenyl-ethynyl)-dU (dUEPh) at 24,25,26,31,40,42,44,46,49,52,54; PBS (1.5 mM KH2PO4, 8.1 mM Na2HPO4, 2.7 mM KCl, 137 mM NaCl) with 5 mM MgCl2, pH 7.4; MST with 0.1% Pluronic F-127 at 25 C; FNBA at room temperature; high values mean tight binding.
T2 sequence (chain, as listed by the source, chain 1 of 2): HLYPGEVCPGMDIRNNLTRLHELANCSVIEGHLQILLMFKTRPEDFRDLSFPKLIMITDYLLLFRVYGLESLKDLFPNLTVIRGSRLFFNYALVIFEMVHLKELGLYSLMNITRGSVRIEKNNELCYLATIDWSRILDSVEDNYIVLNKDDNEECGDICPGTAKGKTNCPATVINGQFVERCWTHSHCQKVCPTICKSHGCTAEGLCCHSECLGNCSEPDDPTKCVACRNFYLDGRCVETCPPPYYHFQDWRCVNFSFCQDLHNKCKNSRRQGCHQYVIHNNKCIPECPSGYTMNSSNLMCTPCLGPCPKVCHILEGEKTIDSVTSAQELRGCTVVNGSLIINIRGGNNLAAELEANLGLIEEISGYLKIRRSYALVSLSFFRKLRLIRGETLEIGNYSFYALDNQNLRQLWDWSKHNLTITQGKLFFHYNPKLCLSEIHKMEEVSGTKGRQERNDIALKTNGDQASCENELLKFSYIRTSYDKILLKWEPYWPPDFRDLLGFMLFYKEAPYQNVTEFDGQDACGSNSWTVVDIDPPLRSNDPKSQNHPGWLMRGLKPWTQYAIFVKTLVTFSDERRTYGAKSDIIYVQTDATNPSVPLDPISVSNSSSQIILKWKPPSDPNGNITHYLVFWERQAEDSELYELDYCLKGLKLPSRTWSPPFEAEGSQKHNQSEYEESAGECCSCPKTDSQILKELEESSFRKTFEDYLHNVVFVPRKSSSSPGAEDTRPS
T2 sequence (chain, as listed by the source, chain 2 of 2): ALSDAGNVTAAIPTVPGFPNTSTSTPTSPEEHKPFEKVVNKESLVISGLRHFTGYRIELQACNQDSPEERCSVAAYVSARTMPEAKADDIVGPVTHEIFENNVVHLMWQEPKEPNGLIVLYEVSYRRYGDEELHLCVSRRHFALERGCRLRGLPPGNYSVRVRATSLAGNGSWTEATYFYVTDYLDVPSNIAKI

The target in data set [7] is Human IGF-1R ectodomain (Homo sapiens) (UniProt P08069+P08069). In words: MST. The following applies: DNA backbone; 7-deaza-7-(indolyl-ethyl)-dA (dAAIn) at 27,28,32,33,35,39,48,51; 5-(phenyl-ethynyl)-dU (dUEPh) at 24,25,26,31,40,42,44,46,49,52,54; PBS (1.5 mM KH2PO4, 8.1 mM Na2HPO4, 2.7 mM KCl, 137 mM NaCl) with 5 mM MgCl2, pH 7.4; MST with 0.1% Pluronic F-127 at 25 C; FNBA at room temperature; high values mean tight binding.

Data set [8] concerns Human insulin receptor ectodomain (HIR) (Homo sapiens), P06213-2. In words: MST. The following applies: IB: PBS (1.5 mM KH2PO4, 8.1 mM Na2HPO4, 2.7 mM KCl, 137 mM NaCl) + 5 mM MgCl2, pH 7.4, MST +0.1% Pluronic F-127, 25 C, SPR 25 C, FNBA and BLI r.t.
The test system of data set [9] is Human insulin receptor isoform A, native (IM-9 cells) (Homo sapiens), P06213-2+P06213-2. In words: competition with 125I-insulin. The following applies: after primer nt 1-20 every U = rigidly linked phenyl-dU and every A = flexibly linked indole-dA (nucleotides 1,2); DNA backbone; IB: PBS (1.5 mM KH2PO4, 8.1 mM Na2HPO4, 2.7 mM KCl, 137 mM NaCl) + 5 mM MgCl2, pH 7.4; MST +0.1% Pluronic F-127, 25 C; SPR 25 C; FNBA and BLI r.t.

The test system of data set [10] is Human insulin receptor ectodomain (HIR) (Homo sapiens), P06213-2. In words: BLI. The following applies: after primer nt 1-20 every U = rigidly linked phenyl-dU and every A = flexibly linked indole-dA (nucleotides 1,2); DNA backbone; IB: PBS (1.5 mM KH2PO4, 8.1 mM Na2HPO4, 2.7 mM KCl, 137 mM NaCl) + 5 mM MgCl2, pH 7.4; MST +0.1% Pluronic F-127, 25 C; SPR 25 C; FNBA and BLI r.t.

In data set [11] the target is T1, Cat insulin receptor ectodomain (CIR) (cat). Nature of the data set: ELONA. The following applies: DNA backbone; 7-deaza-7-(indolyl-ethyl)-dA (dAAIn) at 27,28,32,33,35,39,48,51; 5-(phenyl-ethynyl)-dU (dUEPh) at 24,25,26,31,40,42,44,46,49,52,54; PBS (1.5 mM KH2PO4, 8.1 mM Na2HPO4, 2.7 mM KCl, 137 mM NaCl) with 5 mM MgCl2, pH 7.4; MST with 0.1% Pluronic F-127 at 25 C; FNBA at room temperature; high values mean tight binding.

In data set [12] the target is T2, Dog insulin receptor ectodomain (DIR) (dog). Nature of the data set: ELONA. The following applies: DNA backbone; 7-deaza-7-(indolyl-ethyl)-dA (dAAIn) at 27,28,32,33,35,39,48,51; 5-(phenyl-ethynyl)-dU (dUEPh) at 24,25,26,31,40,42,44,46,49,52,54; PBS (1.5 mM KH2PO4, 8.1 mM Na2HPO4, 2.7 mM KCl, 137 mM NaCl) with 5 mM MgCl2, pH 7.4; MST with 0.1% Pluronic F-127 at 25 C; FNBA at room temperature; high values mean tight binding.

Where [13] appears, read: 7-deaza-7-(indolyl-ethynyl)-dA (dAEIn) at 27,28,32,33,35,39,48,51, 5-(phenyl-ethyl)-dU (dUAPh) at 24,25,26,31,40,42,44,46,49,52,54.
Where [14] appears, read: 7-deaza-7-(indolyl-ethynyl)-dA (dAEIn) at 27,28,32,33,35,39,48,51, 5-(phenyl-ethynyl)-dU (dUEPh) at 24,25,26,31,40,42,44,46,49,52,54.
[15] abbreviates: 7-deaza-7-(phenyl-ethyl)-dA (dAAPh) at 27,28,32,33,35,39,48,51, 5-(phenyl-ethynyl)-dU (dUEPh) at 24,25,26,31,40,42,44,46,49,52,54.
Where [16] appears, read: 7-deaza-7-(indolyl-ethyl)-dA (dAAIn) at 27,28,32,33,35,39,48,51, 5-(phenyl-ethyl)-dU (dUAPh) at 24,25,26,31,40,42,44,46,49,52,54.
The mark [17] stands for this setting: 7-deaza-7-(indolyl-ethyl)-dA (dAAIn) at 27,35,36,38,41,44,48,54, 5-(phenyl-ethynyl)-dU (dUEPh) at 21,22,23,32,33,37,40,45,46,50,53.
[18] abbreviates: 7-deaza-7-(indolyl-ethyl)-dA (dAAIn) at 27,28,32,33,35,39,48,51, 5-(phenyl-ethynyl)-dU (dUEPh) at 24,25,26,31,40,42,44,46,49,52,54.

Chain of Insulin (Homo sapiens) (P01308 90-110): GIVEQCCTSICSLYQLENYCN

Regarding “CAACTTCTACCGGTCCATGTUUGUGAUGCCGACAGCUAGCAGCAAGUAAACGGUC [DIR-5]”, the Kd in data set [1] came out at 19.2 nM.
“CATGACGCTCACTGTATCTCGCGUUUAACGUAACAGCGAUGUCUCUCAUGAUGUC [HIR-6_V1]”: the binding (delta Fnorm (per mille)) in data set [2] (setting [13]) is -0.274. The substance further had a binding signal (a.u. fluorescence) in data set [3] (setting [13]) of 742.
As for Insulin receptor (from UniProt P06213), the Kd with Insulin (Homo sapiens) was 0.3 nM.
Regarding “CATGACGCTCACTGTATCTCGCGUUUAACGUAACAGCGAUGUCUCUCAUGAUGUC [HIR-6_V2]”, the binding (delta Fnorm (per mille)) in data set [2] (setting [14]) turned out to be 1.86. Besides, in [3] (setting [14]), the binding signal (a.u. fluorescence) was 644.
“CATGACGCTCACTGTATCTCGCGTTTAACGUAACAGCGAUGUCUCUCAUGAUGUC [HIR-6_M1]” yielded a binding signal (a.u. fluorescence) in [3] (7-deaza-7-(indolyl-ethyl)-dA (dAAIn) at 32,33,35,39,48,51, 5-(phenyl-ethynyl)-dU (dUEPh) at 31,40,42,44,46,49,52,54) of 205.
Turning to “CATGACGCTCACTGTATCTCGCGUUUAACGUAACAGCGAUGUCUCUCAUGAUGUC [HIR-6_V4]”, in [2] (setting [15]), the binding (delta Fnorm (per mille)) was -1.7. In data set [3] (setting [15]), this substance gave a binding signal (a.u. fluorescence) of 195.
“CATGACGCTCACTGTATCTCGCGUUUAACGUAACAGCGAUGUCUCUCAUGAUGUC [HIR-6_V3]” returned a binding (delta Fnorm (per mille)) in data set [2] (setting [16]) of -3.35. The binding signal (a.u. fluorescence) in data set [3] (setting [16]) amounted to 196.
In [2] (setting [17]), “ACTGCACCTGGCCTTTAACTUUUCGCACGCGUUGAAUACUACCAUUGAGUCGUAG [HIR_SC]” yielded a binding (delta Fnorm (per mille)) of -1.14. In data set [3] (setting [17]), this substance registered a binding signal (a.u. fluorescence) of 266.
Take “CATGACGCTCACTGTATCTCGCGUUUAACGUAACAGCGAUGUCUCUCAUGAUGUC [HIR-6]”: the Kd in data set [4] came out at 0.306 nM; in data set [8] (after primer nt 1-20 every U = rigidly linked phenyl-dU and every A = flexibly linked indole-dA (nucleotides 1,2), DNA backbone), 2.25 nM; in data set [10] it was 0.137 nM. Moreover, the binding (delta Fnorm (per mille)) in data set [2] (setting [18]) was 38.1; in [5] it was -0.745; in [6] it was -1.86; in data set [7], 3.56. The Ki in data set [9] came to 68.8 nM. For the same substance, the binding signal (a.u. fluorescence) in data set [3] (setting [18]) is 45800 and 39500 and 44800; in data set [11] it was 164; in [12], 272.
In the case of “CATGACGCTCACTGTATCTCGCCUUUAACGUAAGAGCGAUGUCUCUCAUGAUGUC [HIR-8]”, the binding (delta Fnorm (per mille)) in [2] (setting [18]) is 24.8; in data set [7], -0.562. For the same substance, the Kd in [8] (as HIR-6: phenyl-dU (rigid) and indole-dA (flexible) after nt 20) amounted to 11.7 nM. Also, the binding signal (a.u. fluorescence) in data set [3] (setting [18]) worked out at 34500.
